Measurements taken from paper PMC9482650, “Quantitative fragmentomics allow affinity mapping of interactomes” (Nature Communications, 2022).
Numbering of substitutions follows the chain as printed.

T1: GRIP1_4, Q9Y3R0
T1 sequence (Q9Y3R0 467-571, limits assumed, looked up): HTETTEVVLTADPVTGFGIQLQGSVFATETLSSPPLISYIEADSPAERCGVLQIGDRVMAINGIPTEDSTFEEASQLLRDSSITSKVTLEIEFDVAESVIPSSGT

T2: HTRA4, P83105
T2 sequence (P83105 378-476, limits assumed, looked up): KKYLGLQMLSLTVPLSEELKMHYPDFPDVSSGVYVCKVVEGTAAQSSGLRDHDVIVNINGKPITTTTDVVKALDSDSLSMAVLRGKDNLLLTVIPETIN

T3: APBA3_1, O96018
T3 sequence (O96018 389-490, limits assumed, looked up): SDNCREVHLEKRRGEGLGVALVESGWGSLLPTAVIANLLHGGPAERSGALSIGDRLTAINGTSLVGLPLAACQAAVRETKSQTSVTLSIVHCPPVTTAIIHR

T4: MPP2, Q14168
T4 sequence (Q14168 180-250, limits assumed, looked up): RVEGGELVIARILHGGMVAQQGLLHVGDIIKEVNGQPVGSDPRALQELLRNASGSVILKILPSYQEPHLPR

T5: PDZD2_2, O15018
T5 sequence (O15018 329-429, limits assumed, looked up): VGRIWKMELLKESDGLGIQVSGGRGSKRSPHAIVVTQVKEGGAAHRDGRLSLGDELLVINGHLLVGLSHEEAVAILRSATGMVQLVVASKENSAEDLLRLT

T6: DVL3, Q92997
T6 sequence (Q92997 244-331, limits assumed, looked up): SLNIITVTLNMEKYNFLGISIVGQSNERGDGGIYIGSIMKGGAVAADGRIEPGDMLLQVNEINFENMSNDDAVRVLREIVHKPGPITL

T7: PDZD7_3, Q9H5P4
T7 sequence (Q9H5P4 857-944, limits assumed, looked up): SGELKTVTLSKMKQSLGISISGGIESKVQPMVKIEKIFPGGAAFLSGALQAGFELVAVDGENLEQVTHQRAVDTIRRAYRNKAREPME

T8: FRMPD1, Q5SYB0
T8 sequence (Q5SYB0 52-145, limits assumed, looked up): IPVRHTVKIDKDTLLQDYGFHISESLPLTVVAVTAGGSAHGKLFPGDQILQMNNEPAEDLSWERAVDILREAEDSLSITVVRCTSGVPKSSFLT

T9: LIN7B, Q9HAP6
T9 sequence (Q9HAP6 88-185, limits assumed, looked up): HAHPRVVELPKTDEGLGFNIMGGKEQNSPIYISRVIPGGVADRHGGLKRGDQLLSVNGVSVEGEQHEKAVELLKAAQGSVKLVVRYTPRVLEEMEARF

T10: LIN7C, Q9NUP9
T10 sequence (Q9NUP9 88-185, limits assumed, looked up): T9 sequence (Q9HAP6 88-185, limits assumed, looked up) with A2S, D13E, V35I, V40I, Q65H, S79K, R89K, A96S

T11: LNX2_3, Q8N448
T11 sequence (Q8N448 463-564, limits assumed, looked up): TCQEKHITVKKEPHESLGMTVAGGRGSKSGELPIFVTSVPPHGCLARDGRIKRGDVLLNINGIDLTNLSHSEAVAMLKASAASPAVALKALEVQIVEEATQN


biological target: T1, GRIP1_4, Q9Y3R0; assay: holdup assay; set-up: key: below the threshold = too weak to quantify, mostly under pKd 3.1 to 4; settings: plain residues with an end cap or a label only (N-terminal biotin on a linker: ado-ado)

Row | Binder | pKd
1 | YYKRPVQEWV [MMP24, Q9Y5R2] | below the threshold
2 | SKSNFGSEPL [KIF17, Q9P2E2] | below the threshold

biological target: T2, HTRA4, P83105; assay: holdup assay; set-up: key: below the threshold = too weak to quantify, mostly under pKd 3.1 to 4; settings: plain residues with an end cap or a label only (N-terminal biotin on a linker: ado-ado)

Row | Binder | pKd
3 | YYKRPVQEWV [MMP24, Q9Y5R2] | 4.37
4 | SKSNFGSEPL [KIF17, Q9P2E2] | below the threshold

biological target: T3, APBA3_1, O96018; assay: holdup assay; set-up: key: below the threshold = too weak to quantify, mostly under pKd 3.1 to 4; settings: plain residues with an end cap or a label only (N-terminal biotin on a linker: ado-ado)

Row | Binder | pKd
5 | YYKRPVQEWV [MMP24, Q9Y5R2] | below the threshold
6 | SKSNFGSEPL [KIF17, Q9P2E2] | below the threshold

biological target: DLG4_1, P78352; assay: holdup assay; set-up: key: below the threshold = too weak to quantify, mostly under pKd 3.1 to 4; settings: plain residues with an end cap or a label only (N-terminal biotin on a linker: ado-ado)
Sequence (P78352 62-152): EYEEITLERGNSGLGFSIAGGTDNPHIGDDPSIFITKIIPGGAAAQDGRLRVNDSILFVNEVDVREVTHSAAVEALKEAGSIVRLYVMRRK

Row | Binder | pKd
7 | YYKRPVQEWV [MMP24, Q9Y5R2] | below the threshold
8 | SKSNFGSEPL [KIF17, Q9P2E2] | below the threshold

biological target: ARHGEF12, Q9NZN5-2; assay: holdup assay; set-up: key: below the threshold = too weak to quantify, mostly under pKd 3.1 to 4; settings: plain residues with an end cap or a label only (N-terminal biotin on a linker: ado-ado)
Sequence (Q9NZN5 other isoform, or with tags, fused parts or gaps): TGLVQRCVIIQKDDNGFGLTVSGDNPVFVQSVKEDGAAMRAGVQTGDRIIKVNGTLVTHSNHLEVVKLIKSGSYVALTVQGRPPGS

Row | Binder | pKd
9 | YYKRPVQEWV [MMP24, Q9Y5R2] | 3.62
10 | SKSNFGSEPL [KIF17, Q9P2E2] | below the threshold

biological target: Inadl_9, Q8NI35; assay: holdup assay; set-up: key: below the threshold = too weak to quantify, mostly under pKd 3.1 to 4; settings: plain residues with an end cap or a label only (N-terminal biotin on a linker: ado-ado)
Sequence (Q8NI35 1530-1615): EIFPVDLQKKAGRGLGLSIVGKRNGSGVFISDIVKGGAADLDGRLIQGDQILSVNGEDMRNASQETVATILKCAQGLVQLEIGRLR

Row | Binder | pKd
11 | YYKRPVQEWV [MMP24, Q9Y5R2] | 4.17
12 | SKSNFGSEPL [KIF17, Q9P2E2] | below the threshold

biological target: T4, MPP2, Q14168; assay: holdup assay; set-up: key: below the threshold = too weak to quantify, mostly under pKd 3.1 to 4; settings: plain residues with an end cap or a label only (N-terminal biotin on a linker: ado-ado)

Row | Binder | pKd
13 | YYKRPVQEWV [MMP24, Q9Y5R2] | below the threshold
14 | SKSNFGSEPL [KIF17, Q9P2E2] | below the threshold

biological target: NHERF4_1, Q86UT5-2; assay: holdup assay; set-up: key: below the threshold = too weak to quantify, mostly under pKd 3.1 to 4; settings: plain residues with an end cap or a label only (N-terminal biotin on a linker: ado-ado)
Sequence (Q86UT5 other isoform, or with tags, fused parts or gaps): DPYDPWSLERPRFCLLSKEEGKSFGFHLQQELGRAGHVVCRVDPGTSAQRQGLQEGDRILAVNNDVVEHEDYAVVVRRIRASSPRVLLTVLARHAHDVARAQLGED

Row | Binder | pKd
15 | YYKRPVQEWV [MMP24, Q9Y5R2] | 3.47
16 | SKSNFGSEPL [KIF17, Q9P2E2] | 4.21

biological target: T5, PDZD2_2, O15018; assay: holdup assay; set-up: key: below the threshold = too weak to quantify, mostly under pKd 3.1 to 4; settings: plain residues with an end cap or a label only (N-terminal biotin on a linker: ado-ado)

Row | Binder | pKd
17 | YYKRPVQEWV [MMP24, Q9Y5R2] | 5.65
18 | SKSNFGSEPL [KIF17, Q9P2E2] | below the threshold

biological target: T6, DVL3, Q92997; assay: holdup assay; set-up: key: below the threshold = too weak to quantify, mostly under pKd 3.1 to 4; settings: plain residues with an end cap or a label only (N-terminal biotin on a linker: ado-ado)

Row | Binder | pKd
19 | YYKRPVQEWV [MMP24, Q9Y5R2] | 4.38
20 | SKSNFGSEPL [KIF17, Q9P2E2] | below the threshold

biological target: IL16_4, Q14005; assay: holdup assay; set-up: key: below the threshold = too weak to quantify, mostly under pKd 3.1 to 4; settings: plain residues with an end cap or a label only (N-terminal biotin on a linker: ado-ado)
Sequence (Q14005 1229-1329): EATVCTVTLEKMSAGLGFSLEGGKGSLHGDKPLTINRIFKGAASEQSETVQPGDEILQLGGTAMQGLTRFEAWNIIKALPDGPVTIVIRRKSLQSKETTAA

Row | Binder | pKd
21 | YYKRPVQEWV [MMP24, Q9Y5R2] | 3.57
22 | SKSNFGSEPL [KIF17, Q9P2E2] | below the threshold

biological target: Inadl_1, Q8NI35; assay: holdup assay; set-up: key: below the threshold = too weak to quantify, mostly under pKd 3.1 to 4; settings: plain residues with an end cap or a label only (N-terminal biotin on a linker: ado-ado)
Sequence (Q8NI35 113-229): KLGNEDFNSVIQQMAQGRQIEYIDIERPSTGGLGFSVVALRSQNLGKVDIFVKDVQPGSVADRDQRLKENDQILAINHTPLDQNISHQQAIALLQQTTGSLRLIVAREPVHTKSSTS

Row | Binder | pKd
23 | YYKRPVQEWV [MMP24, Q9Y5R2] | below the threshold
24 | SKSNFGSEPL [KIF17, Q9P2E2] | below the threshold

biological target: T7, PDZD7_3, Q9H5P4; assay: holdup assay; set-up: key: below the threshold = too weak to quantify, mostly under pKd 3.1 to 4; settings: plain residues with an end cap or a label only (N-terminal biotin on a linker: ado-ado)

Row | Binder | pKd
25 | YYKRPVQEWV [MMP24, Q9Y5R2] | below the threshold
26 | SKSNFGSEPL [KIF17, Q9P2E2] | below the threshold

biological target: NHERF4_4, Q86UT5; assay: holdup assay; set-up: key: below the threshold = too weak to quantify, mostly under pKd 3.1 to 4; settings: plain residues with an end cap or a label only (N-terminal biotin on a linker: ado-ado)
Sequence (Q86UT5 464-550): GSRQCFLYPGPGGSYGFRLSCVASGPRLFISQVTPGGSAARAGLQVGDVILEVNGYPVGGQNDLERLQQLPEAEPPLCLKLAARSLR

Row | Binder | pKd
27 | YYKRPVQEWV [MMP24, Q9Y5R2] | below the threshold
28 | SKSNFGSEPL [KIF17, Q9P2E2] | below the threshold

biological target: T8, FRMPD1, Q5SYB0; assay: holdup assay; set-up: key: below the threshold = too weak to quantify, mostly under pKd 3.1 to 4; settings: plain residues with an end cap or a label only (N-terminal biotin on a linker: ado-ado)

Row | Binder | pKd
29 | YYKRPVQEWV [MMP24, Q9Y5R2] | below the threshold
30 | SKSNFGSEPL [KIF17, Q9P2E2] | below the threshold

biological target: T9, LIN7B, Q9HAP6; assay: holdup assay; set-up: key: below the threshold = too weak to quantify, mostly under pKd 3.1 to 4; settings: plain residues with an end cap or a label only (N-terminal biotin on a linker: ado-ado)

Row | Binder | pKd
31 | YYKRPVQEWV [MMP24, Q9Y5R2] | below the threshold
32 | SKSNFGSEPL [KIF17, Q9P2E2] | below the threshold

biological target: T10, LIN7C, Q9NUP9; assay: holdup assay; set-up: key: below the threshold = too weak to quantify, mostly under pKd 3.1 to 4; settings: plain residues with an end cap or a label only (N-terminal biotin on a linker: ado-ado)

Row | Binder | pKd
33 | YYKRPVQEWV [MMP24, Q9Y5R2] | below the threshold
34 | SKSNFGSEPL [KIF17, Q9P2E2] | 4.09

biological target: Inadl_6, Q8NI35; assay: holdup assay; set-up: key: below the threshold = too weak to quantify, mostly under pKd 3.1 to 4; settings: plain residues with an end cap or a label only (N-terminal biotin on a linker: ado-ado)
Sequence (Q8NI35 1058-1167): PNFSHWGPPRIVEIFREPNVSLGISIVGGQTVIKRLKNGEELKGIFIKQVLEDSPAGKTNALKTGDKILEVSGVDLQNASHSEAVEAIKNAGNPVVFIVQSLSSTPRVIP

Row | Binder | pKd
35 | YYKRPVQEWV [MMP24, Q9Y5R2] | 3.7
36 | SKSNFGSEPL [KIF17, Q9P2E2] | below the threshold

biological target: Inadl_8, Q8NI35; assay: holdup assay; set-up: key: below the threshold = too weak to quantify, mostly under pKd 3.1 to 4; settings: plain residues with an end cap or a label only (N-terminal biotin on a linker: ado-ado)
Sequence (Q8NI35 1425-1530): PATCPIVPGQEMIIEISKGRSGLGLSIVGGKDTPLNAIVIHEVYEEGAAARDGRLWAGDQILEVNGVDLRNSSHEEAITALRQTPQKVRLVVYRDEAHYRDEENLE

Row | Binder | pKd
37 | YYKRPVQEWV [MMP24, Q9Y5R2] | 3.69
38 | SKSNFGSEPL [KIF17, Q9P2E2] | below the threshold

biological target: MAST2, Q6P0Q8; assay: holdup assay; set-up: key: below the threshold = too weak to quantify, mostly under pKd 3.1 to 4; settings: plain residues with an end cap or a label only (N-terminal biotin on a linker: ado-ado)
Sequence (Q6P0Q8 1099-1202): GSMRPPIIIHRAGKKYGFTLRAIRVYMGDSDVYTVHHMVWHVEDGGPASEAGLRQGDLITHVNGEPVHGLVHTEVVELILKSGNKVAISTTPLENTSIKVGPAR

Row | Binder | pKd
39 | YYKRPVQEWV [MMP24, Q9Y5R2] | below the threshold
40 | SKSNFGSEPL [KIF17, Q9P2E2] | 3.93

biological target: GRID2IP_1, A4D2P6; assay: holdup assay; set-up: key: below the threshold = too weak to quantify, mostly under pKd 3.1 to 4; settings: plain residues with an end cap or a label only (N-terminal biotin on a linker: ado-ado)
Sequence (A4D2P6 1-87): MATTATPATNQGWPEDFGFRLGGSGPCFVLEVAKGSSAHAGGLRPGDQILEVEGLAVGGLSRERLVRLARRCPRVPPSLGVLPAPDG

Row | Binder | pKd
41 | YYKRPVQEWV [MMP24, Q9Y5R2] | below the threshold
42 | SKSNFGSEPL [KIF17, Q9P2E2] | below the threshold

biological target: Inadl_3, Q8NI35; assay: holdup assay; set-up: key: below the threshold = too weak to quantify, mostly under pKd 3.1 to 4; settings: plain residues with an end cap or a label only (N-terminal biotin on a linker: ado-ado)
Sequence (Q8NI35 359-469): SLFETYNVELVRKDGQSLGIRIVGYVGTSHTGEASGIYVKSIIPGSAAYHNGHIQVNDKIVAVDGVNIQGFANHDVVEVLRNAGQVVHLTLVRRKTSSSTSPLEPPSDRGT

Row | Binder | pKd
43 | YYKRPVQEWV [MMP24, Q9Y5R2] | below the threshold
44 | SKSNFGSEPL [KIF17, Q9P2E2] | below the threshold

biological target: T11, LNX2_3, Q8N448; assay: holdup assay; set-up: key: below the threshold = too weak to quantify, mostly under pKd 3.1 to 4; settings: plain residues with an end cap or a label only (N-terminal biotin on a linker: ado-ado)

Row | Binder | pKd
45 | YYKRPVQEWV [MMP24, Q9Y5R2] | below the threshold
46 | SKSNFGSEPL [KIF17, Q9P2E2] | below the threshold

biological target: FRMPD2_1, Q68DX3; assay: holdup assay; set-up: key: below the threshold = too weak to quantify, mostly under pKd 3.1 to 4; settings: plain residues with an end cap or a label only (N-terminal biotin on a linker: ado-ado)
Sequence (Q68DX3 770-861): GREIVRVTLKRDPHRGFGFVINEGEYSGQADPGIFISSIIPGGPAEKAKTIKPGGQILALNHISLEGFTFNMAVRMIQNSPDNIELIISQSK

Row | Binder | pKd
47 | YYKRPVQEWV [MMP24, Q9Y5R2] | 3.85
48 | SKSNFGSEPL [KIF17, Q9P2E2] | below the threshold

biological target: LNX1_3, Q8TBB1; assay: holdup assay; set-up: key: below the threshold = too weak to quantify, mostly under pKd 3.1 to 4; settings: plain residues with an end cap or a label only (N-terminal biotin on a linker: ado-ado)
Sequence (Q8TBB1 500-596): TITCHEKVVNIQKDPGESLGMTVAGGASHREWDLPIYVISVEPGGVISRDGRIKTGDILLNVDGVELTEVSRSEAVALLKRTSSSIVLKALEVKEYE

Row | Binder | pKd
49 | YYKRPVQEWV [MMP24, Q9Y5R2] | below the threshold
50 | SKSNFGSEPL [KIF17, Q9P2E2] | below the threshold

biological target: MAGI2_5, Q86UL8; assay: holdup assay; set-up: key: below the threshold = too weak to quantify, mostly under pKd 3.1 to 4; settings: plain residues with an end cap or a label only (N-terminal biotin on a linker: ado-ado)
Sequence (Q86UL8 915-1017): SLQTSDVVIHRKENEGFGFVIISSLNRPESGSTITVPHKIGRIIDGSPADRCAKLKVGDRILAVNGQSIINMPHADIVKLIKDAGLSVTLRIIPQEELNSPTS

Row | Binder | pKd
51 | YYKRPVQEWV [MMP24, Q9Y5R2] | below the threshold
52 | SKSNFGSEPL [KIF17, Q9P2E2] | below the threshold
